Here are results for 6 molecules from patent US20100310591A1 (published 2010).

This assay addresses murine class II MHC allele E^k on CH27 B cell lymphoma antigen presenting cells (murine). Kind of assay: cell-based or functional assay.

Non-standard residues stand in square brackets, D forms with d. Ava = NCCCCC(=O)O

B1: Hybrid 3, Ac-LRMK-ava-ava-IAYLKQATAK-NH2 (peptide)
peptide: Ac-LRMK[Ava][Ava]IAYLKQATAK-NH2
SMILES: CC[C@H](C)[C@H](NC(=O)CCCCNC(=O)CCCCNC(=O)[C@H](CCCCN)NC(=O)[C@H](CCSC)NC(=O)[C@H](CCCNC(=N)N)NC(=O)[C@H](CC(C)C)NC(C)=O)C(=O)N[C@@H](C)C(=O)N[C@@H](Cc1ccc(O)cc1)C(=O)N[C@@H](CC(C)C)C(=O)N[C@@H](CCCCN)C(=O)N[C@@H](CCC(N)=O)C(=O)N[C@@H](C)C(=O)N[C@H](C(=O)N[C@@H](C)C(=O)N[C@@H](CCCCN)C(N)=O)[C@@H](C)O
For B1, the “T cell proliferative response (HT-2 [3H]TdR uptake) at 0.01 nM” value (“T cell proliferative response … at 0.01 nM” below) was 0.6 thousands of cpm, the “T cell proliferative response (HT-2 [3H]TdR uptake) at 0.05 nM” value (shortened to “T cell proliferative response … at 0.05 nM”) was 5.3 thousands of cpm, the “T cell proliferative response (HT-2 [3H]TdR uptake) at 0.18 nM” value (“T cell proliferative response … at 0.18 nM” for short) was 21.6 thousands of cpm and the “T cell proliferative response (HT-2 [3H]TdR uptake) at 0.73 nM” value (“T cell proliferative response … at 0.73 nM” below) is 22.3 thousands of cpm. Moreover, the “T cell proliferative response (HT-2 [3H]TdR uptake) at 3 nM” value (shortened to “T cell proliferative response … at 3 nM”) is 27.9 thousands of cpm, the “T cell proliferative response (HT-2 [3H]TdR uptake) at 12 nM” value (from here on “T cell proliferative response … at 12 nM”) is 29.5 thousands of cpm, the “T cell proliferative response (HT-2 [3H]TdR uptake) at 47 nM” value (from here on “T cell proliferative response … at 47 nM”) was 26.2 thousands of cpm and the “T cell proliferative response (HT-2 [3H]TdR uptake) at 188 nM” value (from here on “T cell proliferative response … at 188 nM”) was 26.2 thousands of cpm. Besides, the “T cell proliferative response (HT-2 [3H]TdR uptake) at 750 nM” value (shortened to “T cell proliferative response … at 750 nM”) is 31.7 thousands of cpm and the “T cell proliferative response (HT-2 [3H]TdR uptake) at 3000 nM” value (“T cell proliferative response … at 3000 nM” below) is 31.9 thousands of cpm.

With Ac-IAYLKQATAK-NH2 [Hybrid 1, Ac-IAYLKQATAK-NH2 (antigenic epitope PGCC 95-104 without Ii-Key)], the “T cell proliferative response … at 0.01 nM” value was 0 thousands of cpm, the “T cell proliferative response … at 0.05 nM” value is 0 thousands of cpm, the “T cell proliferative response … at 0.18 nM” value is 0 thousands of cpm and the “T cell proliferative response … at 0.73 nM” value was 4 thousands of cpm. For the same molecule, the “T cell proliferative response … at 3 nM” value was 0.4 thousands of cpm, the “T cell proliferative response … at 12 nM” value is 10.9 thousands of cpm, the “T cell proliferative response … at 47 nM” value is 29.5 thousands of cpm and the “T cell proliferative response … at 188 nM” value was 32.4 thousands of cpm. Further, the “T cell proliferative response … at 750 nM” value is 27.8 thousands of cpm and the “T cell proliferative response … at 3000 nM” value was 25.2 thousands of cpm.

Take Ac-LRMKLPKSAKPVSKIAYLKQATAK-NH2 [Hybrid 6, Ac-LRMKLPKSAKPVSKIAYLKQATAK-NH2]: the “T cell proliferative response … at 0.01 nM” value was 2.9 thousands of cpm, the “T cell proliferative response … at 0.05 nM” value was 2.4 thousands of cpm, the “T cell proliferative response … at 0.18 nM” value is 11.9 thousands of cpm and the “T cell proliferative response … at 0.73 nM” value is 28.7 thousands of cpm. Besides, the “T cell proliferative response … at 3 nM” value is 31.4 thousands of cpm, the “T cell proliferative response … at 12 nM” value was 39.2 thousands of cpm, the “T cell proliferative response … at 47 nM” value is 25.3 thousands of cpm and the “T cell proliferative response … at 188 nM” value was 26.9 thousands of cpm. The “T cell proliferative response … at 750 nM” value is 23.4 thousands of cpm and the “T cell proliferative response … at 3000 nM” value is 21.5 thousands of cpm.

As for Ac-LRMKLPKSAKPIAYLKQATAK-NH2 [Hybrid 5, Ac-LRMKLPKSAKPIAYLKQATAK-NH2], the “T cell proliferative response … at 0.01 nM” value was 14.3 thousands of cpm, the “T cell proliferative response … at 0.05 nM” value is 21.3 thousands of cpm, the “T cell proliferative response … at 0.18 nM” value was 36.7 thousands of cpm and the “T cell proliferative response … at 0.73 nM” value was 30.1 thousands of cpm. For the same molecule, the “T cell proliferative response … at 3 nM” value is 31.4 thousands of cpm, the “T cell proliferative response … at 12 nM” value is 44.6 thousands of cpm, the “T cell proliferative response … at 47 nM” value is 26.2 thousands of cpm and the “T cell proliferative response … at 188 nM” value is 29.1 thousands of cpm. For the same molecule, the “T cell proliferative response … at 750 nM” value was 27.5 thousands of cpm and the “T cell proliferative response … at 3000 nM” value was 27.3 thousands of cpm.

B2: Hybrid 2, Ac-LRMK-ava-IAYLKQATAK-NH2 (peptide)
peptide: Ac-LRMK[Ava]IAYLKQATAK-NH2
SMILES: CC[C@H](C)[C@H](NC(=O)CCCCNC(=O)[C@H](CCCCN)NC(=O)[C@H](CCSC)NC(=O)[C@H](CCCNC(=N)N)NC(=O)[C@H](CC(C)C)NC(C)=O)C(=O)N[C@@H](C)C(=O)N[C@@H](Cc1ccc(O)cc1)C(=O)N[C@@H](CC(C)C)C(=O)N[C@@H](CCCCN)C(=O)N[C@@H](CCC(N)=O)C(=O)N[C@@H](C)C(=O)N[C@H](C(=O)N[C@@H](C)C(=O)N[C@@H](CCCCN)C(N)=O)[C@@H](C)O
In the case of B2, the “T cell proliferative response … at 0.01 nM” value was 3.4 thousands of cpm, the “T cell proliferative response … at 0.05 nM” value was 19.8 thousands of cpm, the “T cell proliferative response … at 0.18 nM” value is 31.2 thousands of cpm and the “T cell proliferative response … at 0.73 nM” value is 38.8 thousands of cpm. The “T cell proliferative response … at 3 nM” value was 30.1 thousands of cpm, the “T cell proliferative response … at 12 nM” value is 21.9 thousands of cpm, the “T cell proliferative response … at 47 nM” value is 20.8 thousands of cpm and the “T cell proliferative response … at 188 nM” value is 27.2 thousands of cpm. Besides, the “T cell proliferative response … at 750 nM” value is 23.9 thousands of cpm and the “T cell proliferative response … at 3000 nM” value is 25.1 thousands of cpm.

For the molecule Ac-LRMKLPKSIAYLKQATAK-NH2 [Hybrid 4, Ac-LRMKLPKSIAYLKQATAK-NH2], the “T cell proliferative response … at 0.01 nM” value is 2.5 thousands of cpm, the “T cell proliferative response … at 0.05 nM” value was 5.8 thousands of cpm, the “T cell proliferative response … at 0.18 nM” value was 9.1 thousands of cpm and the “T cell proliferative response … at 0.73 nM” value is 19.2 thousands of cpm. Moreover, the “T cell proliferative response … at 3 nM” value was 19 thousands of cpm, the “T cell proliferative response … at 12 nM” value is 23.1 thousands of cpm, the “T cell proliferative response … at 47 nM” value is 19.5 thousands of cpm and the “T cell proliferative response … at 188 nM” value was 20.8 thousands of cpm. In addition, the “T cell proliferative response … at 750 nM” value was 23.3 thousands of cpm and the “T cell proliferative response … at 3000 nM” value is 25.2 thousands of cpm.
